B1: Subtilisin-chymotrypsin inhibitor-2A, P01053 (parent)
chain: MSSVEKKPEGVNTGAGDRHNLKTEWPELVGKSVEEAKKVILQDKPEAQIIVLPVGTIVTMEYRIDRVRLFVDKLDNIAQVPRVG

The variants in this data set derive from B1. The conditions noted are these: Hordeum vulgare, MES 450 mM, reversible: yes, structure 2CI2, whole UniProt chain shown; for ddG of mutation (higher = less stable) / denaturant m value / denaturant midpoint (higher = more stable) / unfolding free energy / heat capacity change of unfolding: 25 °C.

MSSVEKKPEGVNTGAGDRHNLKTEWPEAVGKSVEEAKKVILQDKPEAQIIVLPVGTIVTMEYRIDRVRLFVDKLDNIAQVPRVG [L28A]: for the setting “pH 3, Thermal, DSC”, the Tm (commonly the temperature at which the thermal transition is half complete) stood at 48.5 °C; the “change of melting temperature, mutant - wild type (higher = more stable)” value (“change of melting temperature, mutant” for short) was -15.5 °C; the “unfolding enthalpy (calorimetric)” value is 45 kcal/mol; the “unfolding enthalpy (van 't Hoff)” value was 44.4 kcal/mol. Where the note is “pH 6.3, GdnHCl, Fluorescence”, the “ddG of mutation (higher = less stable)” value turned out to be 1.91 kcal/mol, the denaturant m value amounted to 2.15 kcal/mol/M, the “denaturant midpoint (higher = more stable)” value (“denaturant midpoint” below) was found to be 2.62 M and the unfolding free energy was found to be 5.63 kcal/mol.

For MSSVEKKPEGVNTGAGDRHNLKTEWPELVGKSVEEAKKVILQDKPEAQAIVLPVGTIVTMEYRIDRVRLFVDKLDNVAQVPRVG [I49A I77V], for the setting “pH 3.5, Thermal, DSC”, the “ddG of mutation (higher = less stable)” value is 4.69 kcal/mol and the “heat capacity change of unfolding” value stood at 0.72 kcal/mol/K. For the same variant, for the setting “pH 6.3, GdnHCl, Fluorescence”, the “ddG of mutation (higher = less stable)” value came out at 4.08 kcal/mol, the denaturant m value worked out at 1.83 kcal/mol/M, the “denaturant midpoint” value turned out to be 1.9 M and the unfolding free energy is 3.46 kcal/mol.

For MSSVEKKPEGVNTGAGDRHNLKTEWPELVGKSVEEAKKVILQDKPEAQIIVLPVGTIVTMEYRIDRVRLFVDKLDNAAQVPRVG [I77A], under “pH 3, Thermal, DSC”, the “ddG of mutation (higher = less stable)” value came to 4.23 kcal/mol; the “heat capacity change of unfolding” value amounted to 0.72 kcal/mol/K; the Tm worked out at 38.3 °C; the “change of melting temperature, mutant” value is -25.7 °C. For the setting “pH 3, Thermal, DSC”, the “unfolding enthalpy (calorimetric)” value came to 30.2 kcal/mol and the “unfolding enthalpy (van 't Hoff)” value was found to be 37.2 kcal/mol. Besides, for the setting “pH 3.5, Thermal, DSC”, the “ddG of mutation (higher = less stable)” value was 4.34 kcal/mol; the “heat capacity change of unfolding” value amounted to 0.72 kcal/mol/K; the Tm is 50.3 °C; the “change of melting temperature, mutant” value is -23.5 °C. Also, under “pH 3.5, Thermal, DSC”, the “unfolding enthalpy (calorimetric)” value is 41 kcal/mol and the “unfolding enthalpy (van 't Hoff)” value was determined as 46.8 kcal/mol. Besides, under “pH 6.3, GdnHCl, Fluorescence”, the “ddG of mutation (higher = less stable)” value came to 4.09 kcal/mol, the denaturant m value is 1.93 kcal/mol/M, the “denaturant midpoint” value was determined as 1.79 M and the unfolding free energy worked out at 3.45 kcal/mol.

As to MSSVEKKPEGVNTGAGDRHNLKTEWPELVGKSVEEAKKVILQDKPEAQIIVLPVGTIVTMEYRIDRVRLFVDKLDNVAQVPRVG [I77V], where the note is “pH 3, Thermal, DSC”, the “ddG of mutation (higher = less stable)” value was -0.09 kcal/mol; the “heat capacity change of unfolding” value was 0.72 kcal/mol/K; the Tm is 65.4 °C; the “change of melting temperature, mutant” value turned out to be 1.4 °C. In addition, under “pH 3, Thermal, DSC”, the “unfolding enthalpy (calorimetric)” value came out at 60.5 kcal/mol and the “unfolding enthalpy (van 't Hoff)” value is 60.5 kcal/mol.

For the variant MSSVEKKPEGVNTGAGDRHNLKTEWPELVGKSVEEAKKAILQDKPEAQIIVLPVGTIVTMEYRIDRVRLFVDKLDNIAQVPRVG [V39A], for the setting “pH 3, Thermal, DSC”, the “ddG of mutation (higher = less stable)” value came to 0.46 kcal/mol; the “heat capacity change of unfolding” value is 0.72 kcal/mol/K; the Tm is 61.1 °C; the “change of melting temperature, mutant” value is -2.9 °C. Further, where the note is “pH 3, Thermal, DSC”, the “unfolding enthalpy (calorimetric)” value is 58.5 kcal/mol and the “unfolding enthalpy (van 't Hoff)” value was 58.6 kcal/mol. Also, under “pH 6.3, GdnHCl, Fluorescence”, the “ddG of mutation (higher = less stable)” value is 0 kcal/mol, the denaturant m value turned out to be 2.01 kcal/mol/M, the “denaturant midpoint” value came out at 3.75 M and the unfolding free energy came to 7.54 kcal/mol.

As for MSSVEKKPEGVNTGAGDRHNLKTEWPELVGKSVEEAKKVILQDKPEAQIIVLPVGTIVTMEYRIDRVRAFVDKLDNIAQVPRVG [L69A], under “pH 3.5, Thermal, DSC”, the “ddG of mutation (higher = less stable)” value was found to be 3.74 kcal/mol; the “heat capacity change of unfolding” value came out at 0.72 kcal/mol/K; the Tm worked out at 52.3 °C; the “change of melting temperature, mutant” value was -21.5 °C. Further, for the setting “pH 3.5, Thermal, DSC”, the “unfolding enthalpy (calorimetric)” value is 46.7 kcal/mol and the “unfolding enthalpy (van 't Hoff)” value came to 46.9 kcal/mol. Moreover, for the setting “pH 6.3, GdnHCl, Fluorescence”, the “ddG of mutation (higher = less stable)” value was determined as 3.56 kcal/mol, the denaturant m value is 1.98 kcal/mol/M, the “denaturant midpoint” value was found to be 2.01 M and the unfolding free energy is 3.98 kcal/mol.

With MSSVEKKPEGVNTGAGDRHNLKTEWPELVGKSVEEAKKVILQDKPEAQAIVLPVGTIVTMEYRIDRVRLFVDKLDNIAQVPRVG [I49A], for the setting “pH 3.5, Thermal, DSC”, the “ddG of mutation (higher = less stable)” value was 3.89 kcal/mol; the “heat capacity change of unfolding” value is 0.72 kcal/mol/K; the Tm amounted to 52.5 °C; the “change of melting temperature, mutant” value was -21.3 °C. Further, where the note is “pH 3.5, Thermal, DSC”, the “unfolding enthalpy (calorimetric)” value was 44.9 kcal/mol and the “unfolding enthalpy (van 't Hoff)” value came to 46.9 kcal/mol. Further, where the note is “pH 6.3, GdnHCl, Fluorescence”, the “ddG of mutation (higher = less stable)” value amounted to 3.4 kcal/mol, the denaturant m value was determined as 2.07 kcal/mol/M, the “denaturant midpoint” value worked out at 2 M and the unfolding free energy turned out to be 4.14 kcal/mol.

For MSSVEKKPEGVNTGAGDRHNLKTEWPELVGKSVEEAKKVILQDKPEAQVIVLPVGTIVTMEYRIDRVRLFVDKLDNIAQVPRVG [I49V], where the note is “pH 3.5, Thermal, DSC”, the “ddG of mutation (higher = less stable)” value came out at 0.92 kcal/mol; the “heat capacity change of unfolding” value turned out to be 0.72 kcal/mol/K; the Tm was 69.1 °C; the “change of melting temperature, mutant” value is -4.7 °C. For the same variant, where the note is “pH 3.5, Thermal, DSC”, the “unfolding enthalpy (calorimetric)” value was found to be 62.4 kcal/mol and the “unfolding enthalpy (van 't Hoff)” value is 61.6 kcal/mol. In addition, where the note is “pH 6.3, GdnHCl, Fluorescence”, the “ddG of mutation (higher = less stable)” value turned out to be 0.75 kcal/mol, the denaturant m value is 1.99 kcal/mol/M, the “denaturant midpoint” value amounted to 3.43 M and the unfolding free energy was 6.8 kcal/mol.

Take MSSVEKKPEGVNTGAGDRHNLKTEWPELVGKSVEEAKKVVLQDKPEAQIIVLPVGTIVTMEYRIDRVRLFVDKLDNIAQVPRVG [I40V]: for the setting “pH 3, Thermal, DSC”, the “ddG of mutation (higher = less stable)” value is 1.2 kcal/mol; the “heat capacity change of unfolding” value stood at 0.72 kcal/mol/K; the Tm turned out to be 57.7 °C; the “change of melting temperature, mutant” value is -6.3 °C. Also, for the setting “pH 3, Thermal, DSC”, the “unfolding enthalpy (calorimetric)” value came to 53.7 kcal/mol and the “unfolding enthalpy (van 't Hoff)” value amounted to 54.8 kcal/mol. For the setting “pH 3.5, Thermal, DSC”, the Tm is 67.3 °C; the “change of melting temperature, mutant” value is -6.5 °C; the “unfolding enthalpy (calorimetric)” value was determined as 61.5 kcal/mol; the “unfolding enthalpy (van 't Hoff)” value worked out at 62.5 kcal/mol. Besides, under “pH 6.3, GdnHCl, Fluorescence”, the “ddG of mutation (higher = less stable)” value came to 0.91 kcal/mol, the denaturant m value was determined as 1.99 kcal/mol/M, the “denaturant midpoint” value stood at 3.33 M and the unfolding free energy is 6.63 kcal/mol.

Take MSSVEKKPEGVNTGAGDRHNLKTEWPELVGKSVEEAKKVILQDKPEAQIIVLPVGTIVTMEYRIDRARLFVDKLDNIAQVPRVG [V67A]: for the setting “pH 3.5, Thermal, DSC”, the Tm was 45.3 °C; the “change of melting temperature, mutant” value is -28.5 °C; the “unfolding enthalpy (calorimetric)” value was found to be 37.3 kcal/mol; the “unfolding enthalpy (van 't Hoff)” value is 35.8 kcal/mol. Moreover, for the setting “pH 6.3, GdnHCl, Fluorescence”, the “ddG of mutation (higher = less stable)” value came to 4.97 kcal/mol, the denaturant m value was determined as 1.76 kcal/mol/M, the “denaturant midpoint” value amounted to 1.46 M and the unfolding free energy amounted to 2.57 kcal/mol.

MSSVEKKPEGVNTGAGDRHNLKTEWPELVGKSVEEAKKVILQDKPEAQIIVLPVGTIVTMEYRIDRVRLFADKLDNIAQVPRVG [V71A]: for the setting “pH 3, Thermal, DSC”, the “ddG of mutation (higher = less stable)” value came to 2.17 kcal/mol; the “heat capacity change of unfolding” value stood at 0.72 kcal/mol/K; the Tm amounted to 51.3 °C; the “change of melting temperature, mutant” value was -12.7 °C. For the same variant, under “pH 3, Thermal, DSC”, the “unfolding enthalpy (calorimetric)” value turned out to be 48.5 kcal/mol and the “unfolding enthalpy (van 't Hoff)” value is 49.7 kcal/mol. For the same variant, where the note is “pH 6.3, GdnHCl, Fluorescence”, the “ddG of mutation (higher = less stable)” value is 1.13 kcal/mol, the denaturant m value is 2.15 kcal/mol/M, the “denaturant midpoint” value amounted to 2.98 M and the unfolding free energy is 6.41 kcal/mol.
